From patent US20060024786A1, “WASP and N-WASP constructs and methods of expressing such constructs” (Cytokinetics, Inc., priority 2004, published 2006)
“Also recorded” adds a separate entry of the source.

Experiments:
full length human WASP [1] = target: T1, full length human WASP (Homo sapiens, UniProt P42768); experiment: Pyrene-actin polymerization assay: activation of full length WASP by upstream regulators; assay type: biochemical; conditions: for activation of FL WASP: Arp2/3 complex 4.0 nM, actin 3.5 μM
T1 construct: ProtA (part of TAP tag, behind the tev site) (C, cleaved yes); made in house; host or cells: human 293 cells (Freestyle 293 expression system)
T1 sequence (P42768 whole entry, added parts left off): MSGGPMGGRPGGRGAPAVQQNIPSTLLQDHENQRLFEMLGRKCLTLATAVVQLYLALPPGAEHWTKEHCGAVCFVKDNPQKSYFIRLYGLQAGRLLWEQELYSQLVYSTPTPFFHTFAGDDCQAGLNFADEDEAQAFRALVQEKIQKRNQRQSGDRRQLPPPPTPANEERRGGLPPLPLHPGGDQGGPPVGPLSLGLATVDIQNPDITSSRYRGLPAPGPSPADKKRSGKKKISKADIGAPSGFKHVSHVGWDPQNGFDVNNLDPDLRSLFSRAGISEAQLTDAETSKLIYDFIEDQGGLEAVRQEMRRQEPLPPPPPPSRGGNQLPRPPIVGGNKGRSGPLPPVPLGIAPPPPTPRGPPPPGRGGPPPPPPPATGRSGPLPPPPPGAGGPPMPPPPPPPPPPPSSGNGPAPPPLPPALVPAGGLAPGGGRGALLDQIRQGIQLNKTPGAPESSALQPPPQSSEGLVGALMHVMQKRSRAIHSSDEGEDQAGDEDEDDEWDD
Method: (§1) Samples containing candidate agents (individually or as mixtures) are placed into wells on a multi-well plate. Mix 1 is added to each of the wells and mixed with the candidate agent. A sample of Mix 2 is then introduced into each well and the resulting mixture thoroughly mixed. Typically, Mix 1 and Mix 2 are mixed in 1:1 ratio (e.g., 50 μl each of Mix 1 and Mix 2).
(§2) Actin polymerization is measured as a function of time by exciting pyrene at 365 nm and by detecting an increase in fluorescence emission at 407 nm. The change in fluorescence over time is utilized to determine a fluorescence parameter (e.g., maximal velocity, time to half maximal fluorescence intensity or area under the curve of a plot of fluorescence versus time).
Full length WASP was prepared as described in Example 1. This protein was then used as a substitute GST-105WASP in methods that were otherwise identical to the methods described in Example 7.
(§3) Full length human WASP and N-WASP were TAP-tagged (Rigaut, et al. (1999) Nat. Biotechnology 17:1030, which is incorporated herein by reference in its entirety for all purposes) at the C-terminus (see, also Examples 1 and 2). The recombinant WASP and N-WASP were expressed in human 293 cells and then purified using a TAP-tag protocol as described in Example 5.
The Arp2/3 complex in these experiments was 4.0 nM and the actin concentration 3.5 μM.
The effect of PIP2on the ability of upstream regulators to regulate FL WASP was evaluated in a fifth set of experiments. The results are depicted in graphical format in FIG. 9.

full length human N-WASP = target: T2, full length human N-WASP (Homo sapiens, UniProt O00401); experiment: Pyrene-actin polymerization assay: activation of full length N-WASP by upstream regulators; assay type: biochemical; conditions: for Barbed ends: total concentration of Arp2/3 complex in the assay 4.2 nM; for activation of FL N-WASP: Arp2/3 complex 4.0 nM, actin 3.5 μM
T2 construct: ProtA (part of TAP tag, behind the tev site) (C, cleaved yes); made in house; host or cells: human 293 cells; cDNA amplified from HeLa total RNA
T2 sequence (O00401 with tags, fused parts or gaps Y76H/A201G/F223S/S242L/D248E/S252L/N296S/A333E): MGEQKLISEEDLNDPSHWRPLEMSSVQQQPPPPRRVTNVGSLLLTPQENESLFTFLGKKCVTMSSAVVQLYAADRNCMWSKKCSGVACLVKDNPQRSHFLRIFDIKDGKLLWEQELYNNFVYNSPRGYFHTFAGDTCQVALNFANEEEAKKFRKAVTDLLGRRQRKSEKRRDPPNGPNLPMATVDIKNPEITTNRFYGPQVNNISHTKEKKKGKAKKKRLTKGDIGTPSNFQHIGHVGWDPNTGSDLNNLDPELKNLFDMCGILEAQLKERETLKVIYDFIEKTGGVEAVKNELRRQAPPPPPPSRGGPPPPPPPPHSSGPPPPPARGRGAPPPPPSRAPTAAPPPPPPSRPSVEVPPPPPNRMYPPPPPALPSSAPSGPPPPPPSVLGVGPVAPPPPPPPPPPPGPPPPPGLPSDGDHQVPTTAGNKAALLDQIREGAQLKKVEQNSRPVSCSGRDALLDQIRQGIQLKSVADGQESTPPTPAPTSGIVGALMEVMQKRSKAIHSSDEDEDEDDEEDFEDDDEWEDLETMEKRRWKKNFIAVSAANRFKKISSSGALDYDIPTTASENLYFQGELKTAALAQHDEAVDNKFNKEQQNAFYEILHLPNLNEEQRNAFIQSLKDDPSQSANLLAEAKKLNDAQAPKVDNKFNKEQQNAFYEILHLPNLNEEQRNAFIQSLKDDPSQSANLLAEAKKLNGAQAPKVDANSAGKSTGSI
Method: as §1, §2
Full length N-WASP was prepared as described in Example 2. This protein was then used as a substitute GST-105 WASP in methods that were otherwise identical to the methods described in Example 7.
as §3
Arp2/3 and actin concentrations were as described for the third experiment.
Another set of experiments similar to the fifth set were conducted using FL N-WASP.

full length human WASP [2] = target: T1, full length human WASP; experiment: Pyrene-actin polymerization assay: activation of full length WASP by upstream regulators; assay type: biochemical; conditions: total concentration of Arp2/3 complex in the assay 4.2 nM
Arp2/3 complex = target: T3, Arp2/3 complex; experiment: Arp2/3-mediated actin polymerization stimulated by WASP/N-WASP proteins; assay type: biochemical, human
T3 construct: prepared from an Arp2/3 source such as human platelets; from tissue; host or cells: cell extract, e.g. human platelets
Method: as §1, §2
In a second set of experiments, the ability of various truncated forms of WASP were compared to the activity of the full-length protein. The polymerization assays were conducted in the presence of 500 nM Cdc42, 2.5 nm purified Arp2/3 complex and 3.5 μM actin. FL-WASP, 105 WASP and the VCA (see Example 7) domain were tested. The results of these trials were plotted to obtain EC50 values. The results are provided in FIG. 6 and in the chart below.

[3] = Solubility of purified full-length protein; assay type: physicochemical; conditions: expressed in 293 cells, TAP-tag purification
[4] = 500 nM Cdc42, 2.5 nm Arp2/3 complex, 3.5 μM actin, from EC50 values

With “Cdc42: Rho-family GTPase, upstream regulator; GST-tagged Cdc42 GTP with G12 mutated to V, SEQ ID NO:26” the “activation of FL WASP” value (full length human WASP [1]; FIG. 7) was “can fully activate FL WASP; also recorded: more effective on WASP-stimulated actin nucleation by Arp2/3 complex than on N-WASP-stimulated actin nucleation”, the “acceleration of actin polymerization by activator” value (full length human WASP [1]; FL-WASP plus activator versus FL-WASP alone, FIG. 5) was 13 fold and the “acceleration of actin polymerization by activator” value (full length human N-WASP; N-WASP plus activator versus N-WASP alone, FIG. 5) was 13 fold. The “Barbed ends” value (full length human N-WASP; N-WASP) was 1.3 nM and the “Barbed ends” value (full length human WASP [2]) was 3.8 nM.
For “FL-WASP: full-length Wiskott-Aldrich syndrome protein, SEQ ID NO:2; expressed TAP-tagged in human 293 cells”, the “activity relative to 105 WASP” value (Arp2/3 complex; [4]) was “approximately 20 times”, the “potency relative to the VCA/WA domain” value (Arp2/3 complex; [4]) was “more than 70 times” and the “stimulation of actin polymerization by the protein by itself” value (Arp2/3 complex; without upstream regulators, FIG. 5) was “only weakly stimulate actin polymerization”. The “solubility of purified protein” value [3] was “completely soluble”.
With “Nck2: upstream regulator; GST-tagged NCK2, SEQ ID NO:40” the “dose dependence of barbed end concentration / effect at higher concentrations” value (full length human WASP [1]; FL WASP, FIG. 7) was “bell shaped dependence; also recorded: inhibited”, the “Barbed ends % of max.” value (full length human WASP [1]; WASP, after subtracting baseline (WASP without activators)) was 50% and the “activation of FL N-WASP” value (full length human N-WASP; FIG. 8) was “only activators tested that can stimulate production of maximal concentration of barbed ends”. The “dose dependence of barbed end concentration / effect at higher concentrations” value (full length human N-WASP; FL N-WASP, FIG. 8) was “bell shaped dose dependence; also recorded: inhibited”, the “Barbed ends % of max.” value (full length human N-WASP; N-WASP, after subtracting baseline (without activators)) was 78% and the “Barbed ends” value (full length human N-WASP; N-WASP) was 3.5 nM. The “comparison as N-WASP activator” value (full length human N-WASP; Rac1 versus Cdc42 in the absence of PIP2 vesicles, Nck2 on N-WASP versus WASP, FIG. 8) was “significantly better activator of N-WASP than WASP” and the “Barbed ends” value (full length human WASP [2]) was 2.6 nM.
For “RhoA: GTPase; GST-tagged RhoA GTP, SEQ ID NO:30”, the “activation of FL WASP” value (full length human WASP [1]; FIG. 7) was “could not activate” and the “activation of FL N-WASP” value (full length human N-WASP; FIG. 8) was “could not activate”.
With “RhoC: GTPase; GST-tagged RhoC GTP with G14 mutated to V, SEQ ID NO:28” the “activation of FL WASP” value (full length human WASP [1]; FIG. 7) was “could not activate” and the “activation of FL N-WASP” value (full length human N-WASP; FIG. 8) was “could not activate”.
With “phosphatidylinositol-4,5-bisphosphate [PIP2, reference compound]” the “effect of PIP2 on FL WASP” value (full length human WASP [1]; in the absence of small GTPases or Nck, FIG. 9) was “minimal, if any, effect”.
